Source: US10098960B2, “Polymer conjugate” (UCL Business PLC, priority 2015, dated 2018)
One block for each molecule: values may come before it.

Assays:
[1] = test system: IgA binding to immobilised β2GPI; test: Competitive inhibition ELISA for IgA binding to β2GPI; set-up: species or system human; settings: FIG. 9
Protocol: (§1) Competitive inhibition ELISA was carried out to test the ability of recombinant DI to inhibit binding of purified IgG from patients with APS to immobilised β2GPI. The assay was adapted from the standard β2GPI ELISA published by Ioannou et al., (BMC biotechnology 2006, 6:8) with the following amendments: the inhibitors were pre-incubated at concentrations ranging from 0 mg/ml to 200 μg/ml rather than 0 to 30 μM. Briefly, the test was carried out to test the ability of recombinant DI to inhibit binding of purified IgG from patients with APS to β2GPI coated on a plate. Recombinant DI was pre-incubated with patient serum prior to addition on the ELISA plate coated with β2GPI. Bound patient IgG was detected with an anti-human IgG HRP secondary antibody. Each sample was tested in duplicate.
Assays were carried out using identical methodology to Example 6 with the following alteration; an anti-human IgA secondary conjugated to HRP was used rather than an anti-human IgG secondary antibody.

[2] = test system: binding of aPLs to immobilised native antigen; settings: aPLs from patients with pregnancy loss and with thrombosis; Ioannou et al. 2007; cited from earlier work
[3] = test system: APS IgG-induced femoral vein thrombus formation; test: In vivo mouse blood clot model (blood vessel pinch model); set-up: species or system C57BL/6 mice; settings: recombinant wild-type DI 40 μg intraperitoneally at 0 h and 48 h; 500 μg APS IgG; femoral vein pinch at 72 h; FIG. 10
Protocol: In vivo analysis of inhibition of thrombus formation by DI was carried out in a similar manner to those described within Ioannou et al., 2009, Journal of Thrombosis and Haemostasis, 7: 833-842, In vivo inhibition of antiphospholipid antibody-induced pathogenicity utilizing the antigenic target peptide domain I of beta2-glycoprotein I: proof of concept.
C57BL/6 mice (The Jackson Laboratory, Bar Harbor, Me., USA) were used for these studies.
NHS IgG and APS IgG mean protein G purified antibody obtained from Normal Healthy Subjects or APS patients respectively.
At time 0 h, 2 control groups were untreated, whereas 3 groups of mice were injected intraperitoneally with either recombinant wild-type DI (40 μg), PEGylated wild-type DI (20 μg) or PEG alone, in phosphate-buffered saline (PBS). After 60 min, 4 groups of mice were then treated intraperitoneally with 500 μg of APS IgG, while 1 group received 500 μg of NHS IgG, both in PBS. Both of these treatments were repeated at 48 h and 49 h respectively. The APS IgG dose was the minimal amount of APS IgG antibody required to increase thrombus size beyond two standard deviations (SDs) of the mean size induced by control NHS IgG post-injury. The APS IgG/DI molar ratios were 2.3:1, 1.15:1. […] A pinch stimulus was applied and the thrombus formation was visualised using a transilluminator and measured electronically. […]

[4] = test system: purified IgG from patients with APS in normal human plasma (lupus anticoagulant effect); test: LA (Lupus Anticoagulant) dilute Russel Viper Venom (dRVT-plus) coagulometer assay; assay type: biochemical; settings: 500 μg/ml antibody and 25 μg/ml DI; IgG from four APS patients; FIGS. 8A-8D
Protocol: LA (Lupus Anticoagulant) Dilute Russel Viper Venom (dRVT-plus) Assay:
Assay reagents were used as described in manufacturer's (Haematex) instructions.
This assay reproduces the “lupus anticoagulant” (LA) effect, a test in which antibodies from serum of patients with APS cause a measurable prolongation of clotting time under specific conditions in vitro. Purified IgG from four patients with APS (shown as FIGS. 8A-8D) was pre-incubated with the DI constructs at a molar ratio of ˜1:1 (500 μg/ml antibody and 25 μg/ml DI) before being added to normal human plasma either with or without excess phospholipid—which prevents the anticoagulant effect of the IgG. The results are expressed as ratio of clotting time in absence to that in the presence of excess phospholipid. The higher the ratio, the greater the biological effect exerted by the IgG-APS.
Plasma was thawed on ice, meanwhile the Coagulometer (CA-50, Sysmex) was allowed to warm and reagents were prepared.
Patient antibodies were purified using Protein G IgG purification kit (Pierce), as described by manufacturer's instructions. IgA antibodies are purified using Jacalin beads (Pierce), as per manufacturer's instructions. […]
Plasma was dispensed into glass vials (200 μl×2) and reagents, either low [phospholipid] […] When the clot reached 50% the timing was stopped and recorded. […]

[5] = test system: aPL-induced venous thrombosis formation; settings: mouse model of APS; Ioannou et al. 2009; cited from earlier work
[6] = test system: binding of purified IgG from patients with APS to immobilised β2GPI; test: Competitive inhibition ELISA (IgG); set-up: species or system human; settings: 175 μg/ml of test protein
Protocol: as §1
Competitive inhibition data is generally expressed as retained binding of the antibody to the antigen on the plate in the presence of the inhibitor protein (DI-PEG or DI). […] Activities of PEGylated or non-PEGylated DI are given based on % inhibition. FIGS. 7A-7F show % inhibition data for pegylated and non-pegylated DI constructs.

- inhibition of IgA binding to β2GPI [1]: inhibits IgA binding to β2GPI
B1: wild-type DI: recombinant wild-type domain I of human β2GPI, SEQ ID NO: 2, approximately 7 kDa, unconjugated (protein, listed as Homo sapiens)
chain: GRTCPKPDDLPFSTVVPLKTFYEPGEEITYSCKPGYVSRGGMRKFICPLTGLWPINTLKCTPR
modifications: ends and bridges not checked
- inhibition of binding of aPLs to immobilised native antigen [2]: inhibit the binding of aPLs
- inhibition of thrombus formation (clot size) [3]: prevented the formation of large blood clots
- inhibition of lupus anticoagulant effect (ratio of clotting time in absence to presence of excess phospholipid) [4]: inhibit this biological effect of IgG APS
- inhibition of in vivo aPL-induced venous thrombosis formation [5]: inhibit in vivo aPL-induced venous thrombosis formation

- Retained Activity of WT DI-PEG (20 kDa) Vs WT DI (%) ([6]; Patient 1 IgG): 98.5%
- Retained Activity of WT DI-PEG (20 kDa) Vs WT DI (%) ([6]; Patient 2 IgG): 74.9%
- Retained Activity of WT DI-PEG (20 kDa) Vs WT DI (%) ([6]; Patient 3 IgG): 88.3%
- Retained Activity of WT DI-PEG (20 kDa) Vs WT DI (%) ([6]; Patient 4 IgG): 91.5%
- Retained Activity of WT DI-PEG (20 kDa) Vs WT DI (%) ([6]; Patient 5 IgG): 70%
- Retained Activity of WT DI-PEG (20 kDa) Vs WT DI (%) ([6]; Patient 6 IgG): 91.9%
B2: WT DI-PEG (20 kDa): wild-type domain I β2GPI (SEQ ID NO: 2) mono-PEGylated across a disulfide bridge with 20 kDa PEG reagent 1 (conjugate, listed as Homo sapiens)
chain: GRTCPKPDDLPFSTVVPLKTFYEPGEEITYSCKPGYVSRGGMRKFICPLTGLWPINTLKCTPR
modifications: not fully specified (bridges); ends and bridges not checked; also: mono-PEGylated across a disulfide bridge, Cys places not given here

Further lines, the molecule ahead of its results:

B3: DI(D8S/D9G): variant of domain I of human β2GP1, SEQ ID NO: 3, unconjugated (protein)
chain: GRTCPKPSGLPFSTVVPLKTFYEPGEEITYSCKPGYVSRGGMRKFICPLTGLWPINTLKCTPR
modifications: ends and bridges not checked
- inhibition of binding of aPLs to immobilised native antigen [2]: inhibition is greater
- inhibition of in vivo aPL-induced venous thrombosis formation [5]: inhibit in vivo aPL-induced venous thrombosis formation

B4: D8S, D9G mutant-PEG (20 kDa): D8S,D9G variant domain I (SEQ ID NO: 3) mono-PEGylated with 20 kDa PEG reagent (conjugate)
chain: GRTCPKPSGLPFSTVVPLKTFYEPGEEITYSCKPGYVSRGGMRKFICPLTGLWPINTLKCTPR
modifications: ends and bridges not checked; also: mono-PEGylated with 20 kDa PEG reagent, site not given here
- Retained Activity of D8S, D9G mutant-PEG (20 kDa) Vs D8S, D9G (%) ([6]; Patient 1 IgG): 87.8%
- Retained Activity of D8S, D9G mutant-PEG (20 kDa) Vs D8S, D9G (%) ([6]; Patient 2 IgG): 70.8%
- Retained Activity of D8S, D9G mutant-PEG (20 kDa) Vs D8S, D9G (%) ([6]; Patient 3 IgG): 83.3%
- Retained Activity of D8S, D9G mutant-PEG (20 kDa) Vs D8S, D9G (%) ([6]; Patient 4 IgG): 100%
- Retained Activity of D8S, D9G mutant-PEG (20 kDa) Vs D8S, D9G (%) ([6]; Patient 5 IgG): 64%
- Retained Activity of D8S, D9G mutant-PEG (20 kDa) Vs D8S, D9G (%) ([6]; Patient 6 IgG): 100%
